Results on one molecule are retold here after patent US20150203548A1 (GOVERNMENT OF THE UNITED STATES OF AMERICA AS REPRESENTED …, published 2015).

In the experiment the target is T1, Staphylococcal Enterotoxin B (SEB) (UniProt P01552 28-266).
T1 sequence: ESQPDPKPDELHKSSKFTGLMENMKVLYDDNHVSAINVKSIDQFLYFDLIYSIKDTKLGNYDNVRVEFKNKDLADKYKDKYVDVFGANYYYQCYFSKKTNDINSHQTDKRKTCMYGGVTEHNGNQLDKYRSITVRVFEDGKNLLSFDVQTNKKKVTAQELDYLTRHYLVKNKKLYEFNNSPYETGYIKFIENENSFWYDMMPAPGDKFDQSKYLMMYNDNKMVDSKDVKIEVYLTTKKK
Briefly: SPR (ProteON XPR36), antigen-coated chip.

B1: sdAb A3 (VHH)
VHH: EVQLVESGGGLVQAGDSLRLSCTASGRTFSRAVMGWFRQAPGKEREFVAAISAAPGTAYYAFYADSVRGRFSISADSAKNTVYLQMNSLKPEDTAVYYCAADLKMQVAAYMNQRSVDYWGQGTQVTVSS
With B1, the binding result is “binds”.
